The text below walks through data of patent WO2017204277A1.

The assay has as its target mature h(m)TGF-beta3 (mature form of human (mouse) TGF-beta3) (human (mouse); the filing says the mature forms are identical). The experiment in a line: cell-based or functional assay.

Substance GC1008-hIgG1 (antibody) gave a suppression of TGF-beta3 physiological activity (Smad signal), SEAP activity of HEK-Blue TGFb cells, OD620nm of 100%.
